This passage reports Kd results from PMC9922815.

This assay addresses rabbit skeletal muscle F-actin (rabbit) (UniProt P68135). As to the kind of experiment: co-sedimentation; high-speed F-actin cosedimentation: 5 uM UtrN-R3 incubated 30 min with 0-160 uM phalloidin-stabilized F-actin, 100,000g for 20 min; F-buffer (4.5 mM Tris-HCl pH 8.0, 0.18 mM CaCl2, 50 mM KCl, 2 mM MgCl2, 1.2 mM ATP, 0.5 mM DTT); bound and free by densitometry of Coomassie gels, hyperbola fit.

The substance “UtrN-R3 WT, insect cell-derived (mouse utrophin fragment encoding the N terminus through spectrin repeat 3, phosphorylated) (from UniProt E9Q6R7 1-3430) (domain or fragment)” had a Kd of 84.5 µM. That is a double-digit micromolar value.
For “UtrN-R3 WT, bacterially derived (mouse utrophin fragment encoding the N terminus through spectrin repeat 3, not phosphorylated) (from UniProt E9Q6R7 1-3430) (domain or fragment)”, the Kd was determined as 105 µM.
